Experimental findings from patent US20180051071A1 are described below.

Holding throughout (assay): sandwich EIA: 82E1 capture, HRP-labelled IBL-102; antigen 4000 pg/mL read on the E22P-Aβ42 standard curve
Assay [1] deals with E22V-Aβ42 (Homo sapiens (Human)) (UniProt P05067).
For assay [2], the target named is A21P-Aβ42 (Homo sapiens (Human)) (UniProt P05067).
Assay [3] addresses M35P-Aβ42 (Homo sapiens (Human)) (UniProt P05067).
Assay [4] addresses V24P-Aβ42 (Homo sapiens (Human)) (UniProt P05067).
Assay [5] addresses D23P-Aβ42 (Homo sapiens (Human)) (UniProt P05067).
The target of assay [6] is G25P-Aβ42 (Homo sapiens (Human)) (UniProt P05067).

B1: IBL-102 antibody (antibody, mouse IgG1, kappa, V domains shown)
VH: EVQLQQSGPELVKPGASVKIFCKASGYTFTDYNMDWVKQSHGKRLEWIGDINPNTGVTIDNPKFKGKATLTVDESSSTVYMELRSLSSEDTAVYYCARLPDNYVMDYWGQGTSVTVSA
VL: DVVMTQTPLSLPVSLGDQASISCRCSQSLVHRNGNTNLHWYLQKSGQSPKLLIYKVSNRFSGVPDRFSGSGSGTDFTLKISRVEAEDLGVYFCSQSTYVPLTFGVGTKLELKR
For B1, the cross-reaction rate in assay [1] was 0.28%; in assay [2] it was 0.27%; in assay [3], 0.68%; in assay [4] it was 0.33%; in assay [5], 0.5%; in assay [6] it was 0.53%.
